The source of these data is paper PMC4741949, “Aptamer targeting EGFRvIII mutant hampers its constitutive autophosphorylation and affects migration, invasion and proliferation of glioblastoma cells”.

The data set addresses EGFR wild-type extracellular domain (human, UniProt P00533 25-645). The data set is described as follows: UV (254 nm) cross-linking MALDI-MS; 1:1 molar; peptide 495-500 (domain IV) linked to AGGC and GAGGC; RT-qPCR: 15 min 37 C, 100 ug/ml polyinosine, DPBS washes; flow cytometry: DPBS, 37 C, 30 min; confocal: DMEM without FBS; UV cross-linking buffer not given. As to conditions: protein: recombinant. For orientation: Quantitative PCR measures a nucleic acid by following its amplification.

GCCUUAGUAACGUGCUUUGAUGUCGAUUCGACAGGAGGC (structured_RNA, 2'F-pyrimidines (2'F-C, 2'F-U)) [CL4]: the binding result is “binds”.
